# Data taken from paper PMC12323189.
# Tests used:
# [1] = CHX (20 µM) chase, PD-L1 half-life; conditions: glycan changed form; control: 231 cells
# [2] = flow cytometry and immunofluorescence; conditions: glycan changed form; control: 231 cells
# [3] = western blot of extracellular vesicles; conditions: glycan changed form; control: 231-EVs
# [4] = western blot, flow cytometry, confocal microscopy; conditions: glycan changed form; control: MCF7 cells
substance,measurement,setting,value
PD-L1: 231-MGAT3 (MGAT3 overexpression),degradation_or_half_life,[1],decreases
same,expression_or_secretion,[2],decreases
PD-L1: 231-MGAT3-EVs (MGAT3 overexpression),expression_or_secretion,[3],decreases
PD-L1: MCF7-shM3 (MGAT3 shRNA),expression_or_secretion,[4],increases
